Assay results reported in US20220133913A1 (KOREA BASIC SCIENCE INSTITUTE, published 2022).
Numbering of substitutions follows the chain as printed.

B1: single-domain antibody VHH-25 containing lysin and His6 tags (VHH)
VHH: EVQLVESGGGSVQAGGSLRLSCVVSGYTCSVYDMIWYRQPPGKEREFVSLINSNGRTTYADSVKGRFTISQNNAKNTVYLQMNSLKPEDTAMYYCHAACYSPSRLNYWGQGTQVTVSS
notes: also called Nanobody #25-Lys; VHH-25-K1; not shown: C-terminal lysine tag and His6 tag with any linker
B2: VHH-25 (VHH)
VHH: B1 VHH
notes: also called clone 25
B3: VHH-22 (VHH)
VHH: B1 VHH with E1Q, Q113L
notes: also called clone 22
B4: VHH-11 (VHH)
VHH: DVQLVESGGGSVQPGESLRLSCVASGYTVSSSCMAWFRQAPGKEREVVATIVVTSDTTSTFYADSVKGRFTISPDNAKNTLNLQMNSLEPSDTAMYYCAADRKWNVCSRGYRYTPNWANQFTFWGQGTLVTVSS
notes: also called clone 11
B5: VHH-15 (VHH)
VHH: B4 VHH with D1E, S91P, L129Q
notes: also called clone 15
B6: VHH-13 (VHH)
VHH: B4 VHH with D1H, L129Q
notes: also called clone 13
B7: VHH-17 (VHH)
VHH: B4 VHH
notes: also called clone 17
B8: VHH-23 (VHH)
VHH: HVQLVESGGGSVQTGGSLRLSCAASGYTSSTVYMAWFRQTPGKQREGVAAIYTGGGPTYYADSVKGRFTISQDNAKNTVYLQMNTLKPEDTAMYYCAADRYVYRLVTNWYRPSFYTYWGQGTQVTVSS
notes: also called clone 23
B9: VHH-16 (VHH)
VHH: DVQLVESGGGSVQPGGSLRLSCAASGYTVENSCMAWFRQAPGKEREVVATIVTNNATGTFYADSVKGRFTVSQDNAKNTLNLQMNSLEPEDTAMYYCAADTKWIVCSRGYRYTPNWANQFKYWGQGTQVTVSS
notes: also called clone 16
B10: VHH-20 (VHH)
VHH: B9 VHH with E30D, G58S, Q73H, S86T, Q119H, K121N, Q128L
notes: also called clone 20

Legend:
[1] = molecular target: T1, human αvβ3 integrin ITGAVB3 (human, UniProt P06756 31-992; P05106 27-718, limits assumed); assay: phage ELISA, coated ITGAVB3, anti-M13-HRP, 490 nm; helper phage control
T1 construct: Recombinant heterodimer used as immunogen, ELISA coating and SPR ligand; also called A5B3; A5b3
T1 sequence (P06756 31-992 limits assumed, chain 1 of 2): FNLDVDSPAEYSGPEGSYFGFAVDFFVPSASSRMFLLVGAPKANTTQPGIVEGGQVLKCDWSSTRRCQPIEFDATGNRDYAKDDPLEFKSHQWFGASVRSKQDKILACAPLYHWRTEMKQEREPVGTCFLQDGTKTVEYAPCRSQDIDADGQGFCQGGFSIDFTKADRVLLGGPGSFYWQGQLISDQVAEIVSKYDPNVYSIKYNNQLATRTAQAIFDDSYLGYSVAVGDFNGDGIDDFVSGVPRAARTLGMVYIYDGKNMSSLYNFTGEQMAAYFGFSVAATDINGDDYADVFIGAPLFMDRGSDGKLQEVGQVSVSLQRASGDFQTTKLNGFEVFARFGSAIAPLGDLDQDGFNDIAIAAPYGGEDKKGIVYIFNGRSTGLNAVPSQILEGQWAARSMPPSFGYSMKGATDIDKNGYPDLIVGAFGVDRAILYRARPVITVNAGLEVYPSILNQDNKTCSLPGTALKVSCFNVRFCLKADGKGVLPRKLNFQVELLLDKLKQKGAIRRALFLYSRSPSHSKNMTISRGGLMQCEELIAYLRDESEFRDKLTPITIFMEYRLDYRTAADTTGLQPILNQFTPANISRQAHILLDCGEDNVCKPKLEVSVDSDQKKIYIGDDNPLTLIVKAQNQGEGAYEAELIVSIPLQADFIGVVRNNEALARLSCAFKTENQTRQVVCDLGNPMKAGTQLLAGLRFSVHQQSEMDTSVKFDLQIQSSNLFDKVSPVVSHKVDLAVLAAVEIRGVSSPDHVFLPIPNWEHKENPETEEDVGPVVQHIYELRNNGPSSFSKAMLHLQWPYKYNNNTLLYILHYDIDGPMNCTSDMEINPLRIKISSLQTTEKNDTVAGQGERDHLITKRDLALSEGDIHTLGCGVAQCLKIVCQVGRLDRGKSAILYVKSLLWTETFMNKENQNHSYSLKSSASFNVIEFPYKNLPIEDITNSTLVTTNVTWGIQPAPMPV
T1 sequence (P05106 27-718 limits assumed, chain 2 of 2): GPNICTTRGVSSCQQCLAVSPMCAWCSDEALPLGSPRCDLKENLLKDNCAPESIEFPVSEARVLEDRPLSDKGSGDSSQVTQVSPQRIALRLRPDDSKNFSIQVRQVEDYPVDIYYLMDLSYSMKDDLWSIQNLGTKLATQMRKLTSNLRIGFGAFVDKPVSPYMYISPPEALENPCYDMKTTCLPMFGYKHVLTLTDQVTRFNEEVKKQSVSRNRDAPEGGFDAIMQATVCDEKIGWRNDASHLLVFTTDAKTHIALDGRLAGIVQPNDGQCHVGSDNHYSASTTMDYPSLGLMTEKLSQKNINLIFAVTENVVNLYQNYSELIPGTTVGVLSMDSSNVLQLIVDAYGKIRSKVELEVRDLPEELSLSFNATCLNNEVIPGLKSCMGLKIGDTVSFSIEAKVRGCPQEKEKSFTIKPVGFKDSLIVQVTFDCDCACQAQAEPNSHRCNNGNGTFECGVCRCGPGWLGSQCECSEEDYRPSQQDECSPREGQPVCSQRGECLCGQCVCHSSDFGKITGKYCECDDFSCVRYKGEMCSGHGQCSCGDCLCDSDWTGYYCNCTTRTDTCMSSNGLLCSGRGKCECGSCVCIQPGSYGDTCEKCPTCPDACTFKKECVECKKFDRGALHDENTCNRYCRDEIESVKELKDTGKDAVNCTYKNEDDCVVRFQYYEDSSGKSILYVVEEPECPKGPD

[2] = molecular target: T1, human αvβ3 integrin ITGAVB3; assay: SPR, αvβ3 integrin immobilised on a CMDH chip (Reichert SR7500DC), nanobody as analyte; fitted kd from the table box in the panel; the box prints no unit, s^-1 is from the head of Table 8, where the text prints this cell as 8.02(2)e4
Experimental: (§1) Specifically, a CMDH chip (Carboxymethyl Dextran Hydrogel Surface Sensor Chip, Reichert Technologies) coated with Dextran was mounted on an SPR equipment (Reichert SR7500DC system) to perform immobilization of αᵥβ₃ integrin antigen. Then, an analysis of the affinity of the selected antibody based on the concentration was performed.

[3] = molecular target: T1, human αvβ3 integrin ITGAVB3; assay: SPR, αvβ3 integrin immobilised on CMDH chip, nanobody as analyte
Experimental: as §1

[4] = molecular target: T1, human αvβ3 integrin ITGAVB3; assay: ELISA of soluble VHH, induced at 30 C; coating not given
[5] = molecular target: T1, human αvβ3 integrin ITGAVB3; assay: phage ELISA, coated ITGAVB3, anti-M13-HRP, 490 nm
Experimental: Further, in order to perform phage ELISA, 2.5 μg/mL to […] of a target protein and a control protein were coated at 4 degrees C. using a coating buffer, and the wells were washed 3 times with 200 μL washing buffer per well. The wells were blocked with 200 μL PBS-M for two hours at room temperature. The blocking buffer was removed and the plate was washed 6 times with the washing solution. Thereafter, 100 μL of phage solution was added to the washing buffer per well and incubation was executed at room temperature for 1 to 2 hours. Then, washing was performed 6 times with washing buffer. HRP-binding anti-M13 antibody (GE healthcare) was diluted with 1:5,000 blocking buffer. 100 μL of diluted conjugate was added onto each well, and incubation was performed at room temperature for 1 hour, and washing was carried out 6 times with washing buffer. The HRP substrate solution was prepared as follows: A stock solution of OPD was prepared by dissolving 22 mg OPD (Sigma) in 100 mL of […] sodium citrate (pH 4.0), and 36 μL 30% H₂O₂ was added to 21 mL of OPL stock solution immediately before the detection step. 100 μL of substrate solution was added to each well and incubation was performed for 30 minutes at room temperature. Plates were analyzed using a micro plate reader set at 490 nm.

[6] = molecular target: T1, human αvβ3 integrin ITGAVB3; assay: ELISA of soluble VHH, induced at 37 C; coating not given
[7] = molecular target: T1, human αvβ3 integrin ITGAVB3; assay: ELISA of soluble VHH (TG1 lysate), induced at 30 C, coated ITGAVB3
[8] = molecular target: T1, human αvβ3 integrin ITGAVB3; assay: ELISA of soluble VHH (TG1 lysate), induced at 37 C, coated ITGAVB3

Row | Molecule | OD490 [1] | koff [2] [s⁻¹] | Kd [3] [nM] | koff [3] [s⁻¹] | kon [3] [M⁻¹ s⁻¹] | OD490 [4] | OD490 [5] | OD490 [6] | OD490 [7] | OD490 [8]
1 | M13KO7 helper phage | 0.09 | – | – | – | – | – | – | – | – | –
2 | B1 | – | 0.000802 | 4.64 | 0.000802 | 173000 | – | – | – | – | –
3 | B2 | – | – | – | – | – | 1.05 | 2.03 | 0.193 | 2.01 | 2.03
4 | B3 | – | – | – | – | – | 1.21 | 2.04 | 0.386 | 1.98 | 1.98
5 | B4 | – | – | – | – | – | 0.148 | 2.07 | 0.119 | 0.334 | 0.64
6 | B5 | – | – | – | – | – | 0.146 | 1.97 | 0.121 | 0.179 | 0.132
7 | B6 | – | – | – | – | – | 0.161 | 2.01 | 0.187 | 2 | 2
8 | B7 | – | – | – | – | – | 0.118 | 1.81 | 0.125 | 0.243 | 0.191
9 | B8 | – | – | – | – | – | 0.141 | 2.04 | 0.113 | 0.179 | 0.16
10 | B9 | – | – | – | – | – | 2.02 | 2.07 | 1.02 | 1.75 | 1.68
11 | B10 | – | – | – | – | – | 0.108 | 1.98 | 0.111 | 0.129 | 0.144
